B1: FtsX(His&Myc) [E. coli K-12] / FtsE(Flag) [E. coli K-12] (parent)
chain 1: MIRFEHVSKAYLGGRQALQGVTFHMQPGEMAFLTGHSGAGKSTLLKLICGIERPSAGKIWFSGHDITRLKNREVPFLRRQIGMIFQDHHLLMDRTVYDNVAIPLIIAGASGDDIRRRVSAALDKVGLLDKAKNFPIQLSGGEQQRVGIARAVVNKPAVLLADEPTGNLDDALSEGILRLFEEFNRVGVTVLMATHDINLISRRSYRMLTLSDGHLHGGVGHE
chain 2: MNKRDAINHIRQFGGRLDRFRKSVGGSGDGGRNAPKRAKSSPKPVNRKTNVFNEQVRYAFHGALQDLKSKPFATFLTVMVIAISLTLPSVCYMVYKNVNQAATQYYPSPQITVYLQKTLDDDAAAGVVAQLQAEQGVEKVNYLSREDALGEFRNWSGFGGALDMLEENPLPAVAVVIPKLDFQGTESLNTLRDRITQINGIDEVRMDDSWFARLAALTGLVGRVSAMIGVLMVAAVFLVIGNSVRLSIFARRDSINVQKLIGATDGFILRPFLYGGALLGFSGALLSLILSEILVLRLSSAVAEVAQVFGTKFDINGLSFDECLLLLLVCSMIGWVAAWLATVQHLRHFTPE

Variants of: B1
Assay: western blot of membrane fraction, quantified (FtsE retained on membrane with FtsX)
Details: with FtsE(Flag) [E. coli K-12]; parent: 1.3; read off a plot

Variant | response (OmpC adjusted)
chain 2 MNKRDAINHIRQFGGRLDRFRKSVGGSGDGGRNAPKRAKSSPKPVNRKTNVFNEQVRYAFHGALQDLKSKPFATFLTVMVIAISLTLPSVCYMVYKNVNQAATQYYPSPQITVYLQKTLDDDAAAGVVAQLQAEQGVEKVNYLSREDALGEFRNWSGFGGALDMLEENPLPAVAVVIPKLDFQGTESLNTLRDRITQINGIDEVRMDDSWFARLAALTGLVGRVSAMIGVLMVAAVFLVIGNSVRLSIFARRDSINVQKLIGATDGAILRPFLYGGALLGFSGALLSLILSEILVLRLSSAVAEVAQVFGTKFDINGLSFDECLLLLLVCSMIGWVAAWLATVQHLRHFTPE [chain 2 F267A] | 0.5
chain 2 MNKRDAINHIRQFGGRLDRFRKSVGGSGDGGRNAPKRAKSSPKPVNRKTNVFNEQVRYAFHGALQDLKSKPFATFLTVMVIAISLTLPSVCYMVYKNVNQAATQYYPSPQITVYLQKTLDDDAAAGVVAQLQAEQGVEKVNYLSREDALGEFRNWSGFGGALDMLEENPLPAVAVVIPKLDFQGTESLNTLRDRITQINGIDEVRMDDSWFARLAALTGLVGRVSAMIGVLMVAAVFLVIGNSVRLSIFARRDSINVQKLDGATDGFILRPFLYGGALLGFSGALLSLILSEILVLRLSSAVAEVAQVFGTKFDINGLSFDECLLLLLVCSMIGWVAAWLATVQHLRHFTPE [chain 2 I261D] | 0.11
chain 2 MNKRDAINHIRQFGGRLDRFRKSVGGSGDGGRNAPKRAKSSPKPVNRKTNVFNEQVRYAFHGALQDLKSKPFATFLTVMVIAISLTLPSVCYMVYKNVNQAATQYYPSPQITVYLQKTLDDDAAAGVVAQLQAEQGVEKVNYLSREDALGEFRNWSGFGGALDMLEENPLPAVAVVIPKLDFQGTESLNTLRDRITQINGIDEVRMDDSWFARLAALTGLVGRVSAMIGVLMVAAVFLVIGNSVRLSIFARRDSINVQKLIGAKDGFILRPFLYGGALLGFSGALLSLILSEILVLRLSSAVAEVAQVFGTKFDINGLSFDECLLLLLVCSMIGWVAAWLATVQHLRHFTPE [chain 2 T264K] | 0.51
chain 2 MNKRDAINHIRQFGGRLDRFRKSVGGSGDGGRNAPKRAKSSPKPVNRKTNVFNEQVRYAFHGALQDLKSKPFATFLTVMVIAISLTLPSVCYMVYKNVNQAATQYYPSPQITVYLQKTLDDDAAAGVVAQLQAEQGVEKVNYLSREDALGEFRNWSGFGGALDMLEENPLPAVAVVIPKLDFQGTESLNTLRDRITQINGIDEVRMDDSWFARLAALTGLVGRVSAMIGVLMVAAVFLVIGNSVRLSIFARRDSINPQKLIGATDGFILRPFLYGGALLGFSGALLSLILSEILVLRLSSAVAEVAQVFGTKFDINGLSFDECLLLLLVCSMIGWVAAWLATVQHLRHFTPE [chain 2 V257P] | 0.38

— paper PMC11139282, “Structure and activity of the septal peptidoglycan hydrolysis machinery crucial for bacterial cell division” (PLOS Biology, 2024)
